The chains are these.
B1: 3000-A04 (other)
VH: EVQLLESGGGLVQPGGSLRLSCAASGFTFSSYWMHWVRQAPGKGLEWVALISAGGTSKYYADSVKGRFTISRDNSKNTLYLQMNSLRAEDTAVYYCAKDNEKNLYTWLDYWGQGTLVTVSS
light: QPVLHQPPAMSSALGTTIRLTCTLRNDHDIGVYSVYWYQQRPGHPPRFLLRYFSQSDKSQGPQVPPRFSGSKDVARNRGYLSISELQPEDEAMYYCAMGARSSVTHVFGSGTQLTVLSQPKATPSVTLFPPSSEELQANKATLVCLMNDFYPGILTVTWKADGTPITQGVEMTTPSKQSNNKYAASSYLSLTPEQWRSRRSYSCQVMHEGSTVEKTVAPAECS
notes: copies: 1 + 1
B2: 3000-E07 (other)
VH: B1 VH with S31N, A53G, T56G, S57N, K58I
light: B1 light
notes: copies: 1 + 1
B3: 3000-F09 (other)
VH: B1 VH with A53S, G54S, T56G, S57I, K58T
surrogate light: B1 light
B4: 3000-E01 (other)
VH: B1 VH with A53N, G54N, T56A, S57Y, K58T
surrogate light: B1 light
B5: 3000-H03 (other)
VH: B1 VH with S31D, A49S, A53N, T56G, S57Y, K58T
surrogate light: B1 light
B6: 3000-B06 (other)
VH: B1 VH with A53N, G54N, T56A, S57Y, K58I
light: B1 light
B7: 3000-B03 (other)
VH: B1 VH with S31N, A53N, G54N, S57Y, K58T
light: B1 light
notes: copies: 1 + 1
B8: 3000-D07 (other)
VH: B1 VH with A49S, G54S, T56S, S57I
light: B1 light
notes: copies: 1 + 1
B9: 3000-C08 (other)
VH: B1 VH with L50V, A53N, G54N, T56R, S57Y
surrogate light: B1 light
notes: copies: 1 + 1
B10: 3000-A11 (other)
VH: B1 VH with A53W, T56G, S57T
light: B1 light
notes: copies: 1 + 1
B11: 3000-B02 (other)
VH: B1 VH with L50V, A53S, T56N, S57Y, K58I
surrogate light: B1 light
B12: 3000-A07 (other)
VH: B1 VH with S31D, L50V, A53G, T56A, S57Y
surrogate light: B1 light
B13: 3000-B09 (other)
VH: B1 VH with S31D, A53S, T56G, S57Y
light: B1 light
B14: 3000-C07 (other)
VH: B1 VH with H35S, A53N, T56S, S57I
surrogate light: B1 light
B15: 3000-G09 (other)
VH: B1 VH with A53N, T56G, S57Y
light: B1 light
notes: copies: 1 + 1
B16: 3000-E04 (other)
VH: B1 VH with S31D, L50V, A53W, T56A, S57Y
surrogate light: B1 light
B17: 3000-A08 (other)
VH: B1 VH with H35N, A53N, T56G, S57I
light: B1 light
B18: 3000-C03 (other)
VH: B1 VH with A53N, G54N, S57Y
light: B1 light
notes: copies: 1 + 1
B19: 3000-A05 (other)
VH: B1 VH with S31D, S57Y
light: B1 light

Changes are numbered by the printed parent chain.

In patent publication US20140308287A1 (SEA LANE BIOTECHNOLOGIES, published 2014) one finds EC50 data, which are given here for 19 molecules.

The experiment deals with T1, human ErbB3-Fc (R&D Systems) (human, UniProt P21860 20-643).
T1 construct: Bought protein; also called wild-type ErbB3-Fc fusion; immobilized ErbB3; not shown: Fc part of the bought fusion protein; not described
The experiment in a line: ELISA on ErbB3-Fc, soluble monovalent Sab (Example 42).
Consider B1, for which the EC50 is 127 pM. For the molecule B2, the concentration for a half-maximal effect (EC50) was found to be 121 pM. B3 registered an EC50 of 118 pM. In the case of B4 it was 105 pM; in that of B5, 109 pM.

The molecule B6 returned an EC50 of 84 pM. In turn, B7 gave an EC50 of 179 pM.

B8: the midpoint of the response, the EC50, lay at 152 pM. Turning to B9, the EC50 came to 182 pM. Molecule B10 displayed an EC50 of 139 pM. Molecule B11 had an EC50 of 115 pM. As for B12, the response was half-maximal at 87 pM (EC50). On to B13, for which the EC50 was determined as 70 pM.

Consider B14, for which the response was half-maximal at 102 pM (EC50). Take B15: the EC50 is 158 pM. Take B16: the EC50 was 109 pM.

Molecule B17 registered an EC50 of 72 pM. B18: a half-maximal effect (EC50) was put at 164 pM. For B19 the value was 82 pM.

As a reminder, the EC50 is the concentration that produces a half-maximal response. Higher therefore signals weaker potency.
